Test results as given in paper PMC2119095.

Biological target: Ld class I MHC molecule of the mouse, properly folded form detected by mAb 30-5-7 (mouse)
Assay: radioligand binding + co-IP

Chain of Ld class I MHC molecule of the mouse, properly folded form detected by mAb 30-5-7 (mouse) (P01897 25-362): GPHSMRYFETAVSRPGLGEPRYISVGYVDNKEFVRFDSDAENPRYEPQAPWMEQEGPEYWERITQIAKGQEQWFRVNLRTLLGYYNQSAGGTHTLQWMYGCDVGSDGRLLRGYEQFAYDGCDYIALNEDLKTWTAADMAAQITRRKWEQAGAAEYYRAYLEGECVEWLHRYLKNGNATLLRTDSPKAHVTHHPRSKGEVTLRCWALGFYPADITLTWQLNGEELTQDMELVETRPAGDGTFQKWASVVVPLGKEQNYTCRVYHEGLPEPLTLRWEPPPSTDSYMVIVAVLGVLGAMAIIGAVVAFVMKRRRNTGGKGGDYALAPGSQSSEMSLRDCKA

murine CMV peptide (pp89, 168-176)
percent of the FCS control (cells in serum-free medium during the 4 h assay): 85%
percent of the surface plus lysate peptide binding accounted for by surface Ld: 80%
